Test results from paper PMC5467235, “Variation in auxin sensing guides AUX/IAA transcriptional repressor ubiquitylation and destruction” (Nature Communications, 2017).

B1: GST-IAA6 [Arabidopsis thaliana] / ASK1-TIR1 protein complex [Arabidopsis thaliana] (parent)
chain 1: MAKEGLALEITELRLGLPGDNYSEISVCGSSKKKKRVLSDMMTSSALDTENENSVVSSVEDESLPVVKSQAVGWPPVCSYRRKKNNEEASKAIGYVKVSMDGVPYMRKIDLGSSNSYINLVTVLENLFGCLGIGVAKEGKKCEYIIIYEDKDRDWMLVGDVPWQMFKESCKRLRIVKRSDATGFGLQQD
chain 2: MQKRIALSFPEEVLEHVFSFIQLDKDRNSVSLVCKSWYEIERWCRRKVFIGNCYAVSPATVIRRFPKVRSVELKGKPHFADFNLVPDGWGGYVYPWIEAMSSSYTWLEEIRLKRMVVTDDCLELIAKSFKNFKVLVLSSCEGFSTDGLAAIAATCRNLKELDLRESDVDDVSGHWLSHFPDTYTSLVSLNISCLASEVSFSALERLVTRCPNLKSLKLNRAVPLEKLATLLQRAPQLEELGTGGYTAEVRPDVYSGLSVALSGCKELRCLSGFWDAVPAYLPAVYSVCSRLTTLNLSYATVQSYDLVKLLCQCPKLQRLWVLDYIEDAGLEVLASTCKDLRELRVFPSEPFVMEPNVALTEQGLVSVSMGCPKLESVLYFCRQMTNAALITIARNRPNMTRFRLCIIEPKAPDYLTLEPLDIGFGAIVEHCKDLRRLSLSGLLTDKVFEYIGTYAKKMEMLSVAFAGDSDLGMHHVLSGCDSLRKLEIRDCPFGDKALLANASKLETMRSLWMSSCSVSFGACKLLGQKMPKLNVEVIDERGAPDSRPESCPVERVFIYRTVAGPRFDMPGFVWNMDQDSTMRFSRQIITTNGL
chain 3: MSAKKIVLKSSDGESFEVEEAVALESQTIAHMVEDDCVDNGVPLPNVTSKILAKVIEYCKRHVEAAASKAEAVEGAATSDDDLKAWDADFMKIDQATLFELILAANYLNIKNLLDLTCQTVADMIKGKTPEEIRTTFNIKNDFTPEEEEEVRRENQWAFE

Variants of: B1
Assay: one-point saturation binding assay with [3H]IAA (radioligand binding)
Conditions: 200 nM [3H]IAA, read off a plot

Row | Variant | response
1 | chain 1 MAKEGLALEITELRLGLPGDNYSEISVCGSSKKKKRVLSDMMTSSALDTENENSVVSSVEDESLPVVKSQAVGWPPVRSYRRKKNNEEASKAIGYVKVSMDGVPYMRKIDLGSSNSYINLVTVLENLFGCLGIGVAKEGKKCEYIIIYEDKDRDWMLVGDVPWQMFKESCKRLRIVKRSDATGFGLQQD [chain 1 C78R] | 3100 c.p.m.
